Experimental findings from the nanobody polyreactivity screen of Harvey et al. (2022) are described below.

The nature of the data set: yeast display, Sf9 membrane polyspecificity reagent, FACS + sequencing; frameworks hold sequencing errors. In short, it runs like this: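 Nanobodies came from a synthetic yeast display library in Saccharomyces cerevisiae BJ5465, induced with galactose for 36–48 hours and stained for 1 hour at 4 °C with 10% biotinylated, detergent-solubilized Sf9 membrane reagent. Cells were enriched on streptavidin microbeads and then FACS-sorted, with low and high (top ~1%) gates set on anti-HA fluorescence for expression and streptavidin fluorescence for reagent binding. Each polyreactivity label reflects the gate a clone came from. Genes were amplified by colony PCR, sequenced by MiSeq 2 × 250 and filtered by CDR length.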
Regarding “QVQLVESGGGLVQAGGSLRLSCAASGYTFGSNTMGWYRQAPGKERELVAVITWSGGSTYYADSVKGRFTISRDNAKNTVYLQMNSLKPEDTAVYYCAADATSPLTWFDYWGQGTQVTVSS”, the “polyreactivity (PSR sort gate)” value is reported as “low polyreactivity”.

Consider “QVQHVESGGGLVQAGGSLRLSCAASGFIYSTNAMGWYRQAPGKERELVATIRSGGSTNYADSVKGRFTISRDNAKNTVYLQMNCLQPEDTAVYYCNVDDTSWTTSGGRFGQVESDYWGQGTQVTVSS”, for which the “polyreactivity (PSR sort gate)” value is “low polyreactivity”. For “QVQRVESGGGLVQAGGILSLSCAASGSIFPWYAMGWYIQAPANERELVAAITISGGSTHYADSVKGRFTISRDNAKNSVYLEMNSLIPEDTAVYYCSTPRYPSYEYWGLGTQVTVSS”, the “polyreactivity (PSR sort gate)” value is listed as “low polyreactivity”. The result for “QVQLVESGGGIVQAGGSLRLSCAASGRIFVRNAMVWYRQAPGKERELVAAISTNGGSTRYADSVKGRFTISRDNAKNTVYLQMNSLKPEDTAVYYCNAYYSHSPRYLKYDYWGLGTQVTVSS” reads “high polyreactivity”. As for “QVQLVESGGGLVQAGGSLRLSCAASGRIFHHNAMVSYRQAPGKEMELVATITWSGGRTYYADSVKGRFTISRDNAKNTVYLQMNSLKPEDTAVYYCAASSYSYYGYRSYQSTYYYWGQGTQVTVSS”, the “polyreactivity (PSR sort gate)” value was “low polyreactivity”.

With “QVQLVESGGGLVQAGGSLRLSCAASGRIFQVNAMGWYRQAPGKERELVAAITYSGGTTYYADSVKGRFTISRDNAKNNVYLQMNRLKPEYTAVYYCAAEGYGAQGDPWQYGYEYWGQGTKVTVSS”, the “polyreactivity (PSR sort gate)” value was “low polyreactivity”. The result for “QVQLVESGGGLVQAGGSLRLTCAASGFIFPRYAMGWYRQAPGKERELVAAISYSGGSTYYADSVKGRFTISRDNAKNTVYLQMNSLKPEDTAVYYCNKDFPPQGQLRNMYYWGQGTQVTVSS” reads “high polyreactivity”. For the sequence “QVQLVESGGGLVQAGGSLRLSCAASGRTFTSNAMGWYRPAPGKERELVAAITQSGGSTYYADSVKGRFTISRDNAKNTVYLQMNSLKPEDTAVYYCNAETTGRTEYNYWGQGTQVTVSS”, the “polyreactivity (PSR sort gate)” value is listed as “low polyreactivity”. For the sequence “QVQLVESGGGLVQAGGSLRLSCAASGFTFARYAMGWYRQAPGKERELVAAISSRGGRTYYADSVKGRFTISRDNAKNTVYLQMNSLKPEDTAVYYCNAGYAHTYDYWGQGTQVTVSS”, the “polyreactivity (PSR sort gate)” value is recorded as “high polyreactivity”. Consider “QVQLVESGGGLFQAGGSLRLSCAASGFISSGNTMAWYRQAPGKERELVAAISGSGGRTYYADSVKGRFTISRDNAKNTVYLQMNSLKPEDTAVYYCATPLQQLYGYWGQGTQVTVSS”, for which the “polyreactivity (PSR sort gate)” value is “low polyreactivity”. The result for “QVQLVESGGGLVQAGGSLRLSCAASGSIFPSNAMGWYRQAPGKERELVATIGRGGTTNYADSVKGRFTISRDNAKNTVYLQMNSLKPEDTAVYYCNAERIWRYKYGYDYWGQGTQVTVSS” reads “high polyreactivity”; that for “QVQLVESGGGLVQAGGSLRLSCAASGSTFYYYSMGWYRQAPGKERELVASISDDGSTNYADSVKGRFTISRDNAKNTVYLQMNSLKPEDTAVYYCAAVWWHQFGSAWYQMGYWGQGTQVTVSS”, “low polyreactivity”. For the sequence “QVQLVESGGGLVQAGGSLRLSCAASGSIFLSNARGWYIQAPGKERELVADIDWTRGDTYYADSVKGRFTISRDNAKNTVYLQMNSLKPEDTAVYDCAADYGYRNLLTEYGYWGQGTEVTVSS”, the “polyreactivity (PSR sort gate)” value is “low polyreactivity”.

On to “QVQLVESGGGLVQAGGSLRLSCAASGFIFGDYAMGWYRQAPGKERELVAAITWSGGRTYYADSVKGRFTISRDNAKNTVYLQMNSLKPEDTAVYYCSAVWYTSRQKYDYWGQGTQVTVSS”, for which the “polyreactivity (PSR sort gate)” value is given as “low polyreactivity”. The result for “QVQLVESGGGLVQAGGSLRLSCAASGSIFFINAMGWYRQAPGKERELVADITSGGGTYYADSVKGRFTISRDNAKNTVYLQMNSLKPVDTAVYYCAKEYGFTGYGYWGQCTQVTVSS” reads “low polyreactivity”; that for “QVQLVESGGGLVQAGGSLRLSCAASGITLYNYAMGWYRQAPGTERELVAAISLSGGRTYYADSVKGRFTISRDNAKNTVYLQMNSLKPEDTAVYYCAADWLNSDPYNYWGQGTQVTVSS”, “low polyreactivity”.
